Experimental data reported in patent publication US20220175942A1 (published 2022).
Read-outs that look alike come from different tables or passages of the source.

T1: CCL5_HUMAN (human, UniProt P13501 24-91)
T1 chain: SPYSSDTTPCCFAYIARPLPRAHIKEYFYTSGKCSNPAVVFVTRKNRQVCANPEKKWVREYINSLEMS

T2: CCL19_HUMAN (human, UniProt Q99731 22-98)
T2 chain: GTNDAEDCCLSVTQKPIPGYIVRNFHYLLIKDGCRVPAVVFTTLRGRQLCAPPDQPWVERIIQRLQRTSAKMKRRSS

T3: CCL4 (human, UniProt P13236 24-92)
T3 chain: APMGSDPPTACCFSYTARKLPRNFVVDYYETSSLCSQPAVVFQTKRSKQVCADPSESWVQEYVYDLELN

T4: CCL15_HUMAN (human, UniProt Q16663 22-113)
T4 chain: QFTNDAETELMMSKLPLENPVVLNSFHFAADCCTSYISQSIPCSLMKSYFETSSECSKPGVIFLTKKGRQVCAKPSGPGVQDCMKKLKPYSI

T5: CCL17_HUMAN (human, UniProt Q92583 24-94)
T5 chain: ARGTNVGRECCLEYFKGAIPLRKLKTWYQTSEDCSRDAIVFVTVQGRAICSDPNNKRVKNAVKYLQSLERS

T6: CCL8_HUMAN (human, UniProt P80075 24-99)
T6 chain: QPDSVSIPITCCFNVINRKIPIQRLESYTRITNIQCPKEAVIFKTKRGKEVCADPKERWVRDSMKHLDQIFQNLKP

T7: CCL1_HUMAN (human, UniProt P22362 24-96)
T7 chain: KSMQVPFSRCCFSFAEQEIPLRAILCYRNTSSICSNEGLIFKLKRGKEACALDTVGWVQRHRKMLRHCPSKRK

B1: CCL3_HUMAN (ligand)
chain: SLAADTPTACCFSYTSRQIPQNFIADYFETSSQCSKPGVIFLTKRSRQVCADPSEEWVQKYVSDLELSA
B2: CCL18_HUMAN (ligand)
chain: AQVGTNKELCCLVYTSWQIPQKFIVDYSETSPQCPKPGVILLTKRGRQICADPNKKWVQKYISDLKLNA
B3: CCL22_HUMAN (ligand)
chain: GPYGANMEDSVCCRDYVRYRLPLRVVKHFYWTSDSCPRPGVVLLTFRDKEICADPRVPWVKMILNKLSQ

Assays:
EVASIN4 [1] = assay: -; previously described evasin
EVASIN1 = assay: -; previously described evasin
CCL24_HUMAN = assay: BLI
CCL23_HUMAN = assay: BLI
CCL27_HUMAN = assay: BLI
CCL16_HUMAN = assay: BLI
CCL14_HUMAN = assay: BLI
CCL4L1_HUMAN = assay: BLI
CCL13_HUMAN = assay: BLI
CCL7_HUMAN = assay: BLI
CCL3L1_HUMAN = assay: BLI
CCL22_HUMAN = target: B3; assay: BLI
CCL5_HUMAN = target: T1, CCL5_HUMAN; assay: BLI
CCL2_HUMAN = CCL2_HUMAN (human, UniProt P13500 24-99); assay: BLI
CCL19_HUMAN = target: T2, CCL19_HUMAN; assay: BLI
CCL4 = target: T3, CCL4; assay: BLI
CCL15_HUMAN = target: T4, CCL15_HUMAN; assay: BLI
CCL18_HUMAN = target: B2; assay: BLI
CCL11_HUMAN = CCL11_HUMAN (human, UniProt P51671 24-97); assay: BLI
CCL3_HUMAN = target: B1; assay: BLI
CCL17_HUMAN = target: T5, CCL17_HUMAN; assay: BLI
CCL8_HUMAN = target: T6, CCL8_HUMAN; assay: BLI
CCL1_HUMAN = target: T7, CCL1_HUMAN; assay: BLI
CXCL1_HUMAN [2] = assay: BLI
CXCL3_HUMAN [3] = assay: BLI
CXCL8_HUMAN = CXCL8_HUMAN (human, UniProt P10145 28-99); assay: BLI
CXCL1_HUMAN [4] = assay: BLI; remark: listed apart in the source
CXCL3_HUMAN [5] = assay: BLI; remark: listed apart in the source
EVASIN4 [6] = assay: -; previously described evasin; remark: listed apart in the source

Sequence of CCL2_HUMAN (P13500 24-99): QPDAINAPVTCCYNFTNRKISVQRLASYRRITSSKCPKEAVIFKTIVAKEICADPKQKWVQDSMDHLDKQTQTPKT
Sequence of CCL11_HUMAN (P51671 24-97): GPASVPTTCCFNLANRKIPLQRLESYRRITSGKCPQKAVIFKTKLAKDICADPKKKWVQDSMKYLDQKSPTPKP
Sequence of CXCL8_HUMAN (P10145 28-99): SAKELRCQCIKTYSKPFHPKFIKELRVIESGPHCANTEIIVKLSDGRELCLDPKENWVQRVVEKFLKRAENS

Binder | Kd (CCL16_HUMAN) [nM] | Kd (CCL14_HUMAN) [nM] | Kd (CCL4L1_HUMAN) [nM] | Kd (CCL13_HUMAN) [nM] | Kd (CCL7_HUMAN) [nM] | Kd (CCL3L1_HUMAN) [nM] | Kd (CCL2_HUMAN) [nM] | Kd (CCL4) [nM] | Kd (CCL18_HUMAN) [nM] | Kd (CCL11_HUMAN) [nM] | Kd (CCL3_HUMAN) [nM] | Kd (CCL8_HUMAN) [nM] | Kd (CCL1_HUMAN) [nM] | further results
B1 | – | – | – | – | – | – | – | – | – | – | – | – | – | Kd (EVASIN4 [1]): 0.06 nM; Kd (EVASIN1): 0.1 nM
P991_AMBCA (other) ENGEGTTQPDYDNSTDYYNYEDFKCTCPAPHLNNTNGTVMKPIGCYYTCNVTRCTAPDTYPCYNLTEHQAKNLTTSPTTLCAVGNCDHGICVPNGTKELCFKAPNLEE | 1.28 | 0.43 | 0.827 | 0.419 | 0.514 | 1.4 | 12.2 | 5.82 | 0.209 | 3.43 | 1.08 | 8.79 | – | Kd (CCL24_HUMAN): 6.54 nM; Kd (CCL23_HUMAN): 5.58 nM; Kd (CCL27_HUMAN): 38.9 nM; Kd (CCL22_HUMAN): 3.97 nM; Kd (CCL5_HUMAN): 1.47 nM; Kd (CCL19_HUMAN): 14.4 nM; Kd (CCL15_HUMAN): 159 nM; Kd (CCL17_HUMAN): 7.66 nM
P985_AMBPA (other) DEESEELGASTDVDYEELDANCTCPAPALTSTRNNKHYPLGCIYNCSSYNCTIPDGTPCYVLTLGEVKEHLQIGSTVPNCTCGLCRNGTCVSNGTVEECFAVEEIEET | 44.8 | – | 20.6 | 89 | 61.4 | 45.8 | 16.8 | 7.47 | 431 | 8 | 8.9 | 6.53 | 8.32 | Kd (CCL24_HUMAN): 40.8 nM; Kd (CCL5_HUMAN): 3.52 nM
P943_IXORI (other) RSKQPTASQSSKNSIKAEFCDTNCTQGTNGAWSGCSEGCFCVHVGNNTKGRCMKLSSDYDYTTQ | – | – | – | – | – | – | – | – | – | – | – | – | – | Kd (CXCL1_HUMAN [2]): 24 nM; Kd (CXCL3_HUMAN [3]): 270 nM
B2 | – | – | – | – | – | – | – | – | – | – | – | – | – | Kd (EVASIN4 [1]): 0.03 nM; Kd (EVASIN1): 3 nM
P467_RHIPU (other) AEKSLDSDSSGEDYELWTQGCPFLVAENRTGFGTTVSCQHNCNGAIEKVPEGEPCYTIGEDGLGRMKLNLPYNCSLGECSGGVCVPNGRSDVCFKRTWEENNKAMA | 14.1 | 4.13 | 4.72 | 2.56 | 2.15 | 0.524 | 0.001 | 13.6 | 16.6 | 1.4 | 0.363 | 2.85 | 53.4 | Kd (CCL5_HUMAN): 7.67 nM
P546_AMBCA (other) ENTQQEEEDYDYGTDTCPFPVLANKTNKAKFVGCHQKCNGGDQKLTDGTACYVVERKVWDRMTPMLWYSCPLGECKNGVCEDLRKKEECRKGNGEEK | 6.67 | 28.2 | 8.87 | 13.1 | 90 | 14.7 | 83 | 26.6 | 16 | 8.7 | 14.5 | 1.29 | 160 | Kd (CCL22_HUMAN): 27 nM; Kd (CCL17_HUMAN): 70 nM
P974_AMBCA (other) ENTQQEEQDYDYGTDTCPFPVLANKTNKAKFVGCHQKCNGGDQKLTDGTACYVVERKVWDRMTPMLWYECPLGECKNGVCEDLRKKEDCRKGNGEEK | 11 | 49.1 | 23.2 | 22.9 | 41.2 | 13.1 | 93 | 30.2 | 0.683 | 17 | 7.97 | 2.58 | 70.5 | Kd (CCL22_HUMAN): 16.8 nM; Kd (CCL17_HUMAN): 70.6 nM
P1156_IXORI (other) ADDDNELFTVQYCGMNCTKDEGGTWTGCTGKKEGCKCYHESGKNYGLCLSTEYTDFSQYGNPSDSEIEAAKPKRSDTLSH | – | – | – | – | – | – | – | – | – | – | – | – | – | Kd (CXCL8_HUMAN): 4.6 nM; Kd (CXCL1_HUMAN [4]): 3.25 nM; Kd (CXCL3_HUMAN [5]): 81 nM
CCL4_HUMAN (ligand) APMGSDPPTACCFSYTARKLPRNFVVDYYETSSLCSQPAVVFQTKRSKQVCADPSESWVQEYVYDLELN | – | – | – | – | – | – | – | – | – | – | – | – | – | Kd (EVASIN1): 0.5 nM
P1182_AMBMA (other) EPKDDNDYGGGCPFVVLGNGTHAKPAGCSHLCNGAPETLDNIECYNVTEEVAKRMTPGIPYACWLGWCNKGECKRGNRTEVCYRGSEEE | – | – | – | 50 | 29.2 | 63.4 | 5.39 | 92.4 | – | 56 | 9.46 | 28.2 | 74 | Kd (CCL17_HUMAN): 33.4 nM
CCL25_HUMAN (ligand) QGVFEDCCLAYHYPIGWAVLRRAWTYRIQEVSGSCNLPAAIFYLPKRHRKVCGNPKSREVQRAMKLLDARNKVFAKLHHNTQTFQAGPHAVKKLSSGNSKLSSSKFSNPISSSKRNVSLLISANSGL | – | – | – | – | – | – | – | – | – | – | – | – | – | Kd (EVASIN4 [6]): 69.6 nM
B3 | – | – | – | – | – | – | – | – | – | – | – | – | – | Kd (EVASIN4 [6]): 0.43 nM
P672_RHIPU (other) VCEVSEQEGVGEDNATEDEDYEDFFKPVTCYFANSTVGPLRPPNCTVVCTNNTAWWNDTKSDGGHCYSEYRPEKRTHSREIYNCTIGVCGNGTCIANHTYADCW | 3.29 | 5.5 | – | – | 16.1 | 2.7 | 9.09 | – | – | – | 2.6 | 3.7 | – | Kd (CCL23_HUMAN): 10 nM; Kd (CCL15_HUMAN): 31.5 nM
